Measured values as given in US20180117114A1 (INDIANA UNIVERSITY RESEARCH AND TECHNOLOGY COPORATION, published 2018).

B1: SEQ ID NO: 1, neurofibromin C-terminus peptide RVSHGQIKQIIRILS (peptide)
peptide: RVSHGQIKQIIRILS
notes: 15-mer on a SPOTS membrane
B2: SEQ ID NO: 2, neurofibromin C-terminus peptide KGYRHPSPAIVARTV (peptide)
peptide: KGYRHPSPAIVARTV
notes: 15-mer on a SPOTS membrane
B3: SEQ ID NO: 3, neurofibromin C-terminus peptide YLQSFGFNGLWRFAG (peptide)
peptide: YLQSFGFNGLWRFAG
notes: 15-mer on a SPOTS membrane

These binders were tested against CRMP-2 from wild-type mouse brain lysate (mouse, UniProt O08553 1-572) (assay: SPOTS array of neurofibromin 15-mers overlaid with mouse brain lysate, probed with three CRMP-2 antibodies).
B1: binds. B2: binds. B3: binds.
